Substrate in this data set: CC(=O)NCCCNCCCCN
The data set is described as follows: colorimetric acetate release. The data set is classed as biochemical, Mycoplana ramosa. The following applies: 26 °C. An excerpt:
colorimetric acetate release on M. ramosa APAH

The values that follow come from paper PMC9992855, “Functional polyamine metabolic enzymes and pathways encoded by the virosphere” (Proceedings of the National Academy of Sciences of the …, 2023).

B1: M. ramosa APAH (Mycoplana ramosa) (protein)
chain: MRVIFSEDHKLRNAKTELYGGELVPPFEAPFRAEWILAAVKEAGFDDVVAPARHGLETVLKVHDAGYLNFLETAWDRWKAAGYKGEAIATSFPVRRTSPRIPTDIEGQIGYYCNAAETAISPGTWEAALSSMASAIDGADLIAAGHKAAFSLCRPPGHHAGIDMFGGYCFINNAAVAAQRLLDKGAKKIAILDVDFHHGNGTQDIFYERGDVFFASLHGDPAEAFPHFLGYAEETGKGAGAGTTANYPMGRGTPYSVWGEALTDSLKRIAAFGAEAIVVSLGVDTFEQDPISFFKLTSPDYITMGRTIAASGVPLLVVMEGGYGVPEIGLNVANVLKGVAG
notes: 341 aa; positive comparative control enzyme
For B1, the Km (in general, the substrate concentration at which the rate is half of its maximum) is 630 ± 40 µM; the kcat (as a rule, the number of substrate molecules converted per active site and unit of time at saturation) amounted to 5.8 ± 0.14 s⁻¹; the specificity constant (kcat/Km) – broadly, the second-order rate constant that governs catalysis at low substrate concentration – was 9300 ± 450 M⁻¹ s⁻¹.
